Data on one substance can be found in article PMC7689449.

Test [1] addresses Sulfolobus islandicus type I-D Cas10d large subunit (Se-Met substituted, C-terminal His6) (Sulfolobus islandicus). The test can be described thus: crystal structure; Se-Met Cas10d and AcrID1 mixed 1:2 (Cas10d:AcrID1), 75 °C for 1 min, complex isolated on Superdex 200 (30 mM Hepes-NaOH pH 7.5, 150 mM NaCl, 5 mM β-ME); crystals in 0.1 M Hepes pH 7.5, 4% PEG 8000, 5% ethylene glycol, 19 °C; SAD, 3.5 Å.

Test [2] concerns the target Sulfolobus islandicus rod-shaped virus 3 (SIRV3) anti-CRISPR protein AcrID1 (C-terminal His6) (Sulfolobus islandicus rod-shaped virus 3 (SIRV3)). The description is as above.

Substance “Sulfolobus islandicus rod-shaped virus 3 (SIRV3) anti-CRISPR protein AcrID1 (C-terminal His6) (natural protein)” came in with a stoichiometry N (AcrID1 per Cas10d) in test [1] of 2. In addition, in test [2], the stoichiometry N worked out at 2.
